The target in data set [1] is T1, hPIF1HD V258A (Homo sapiens, UniProt Q9H611 206-620, V258A).
T1 sequence: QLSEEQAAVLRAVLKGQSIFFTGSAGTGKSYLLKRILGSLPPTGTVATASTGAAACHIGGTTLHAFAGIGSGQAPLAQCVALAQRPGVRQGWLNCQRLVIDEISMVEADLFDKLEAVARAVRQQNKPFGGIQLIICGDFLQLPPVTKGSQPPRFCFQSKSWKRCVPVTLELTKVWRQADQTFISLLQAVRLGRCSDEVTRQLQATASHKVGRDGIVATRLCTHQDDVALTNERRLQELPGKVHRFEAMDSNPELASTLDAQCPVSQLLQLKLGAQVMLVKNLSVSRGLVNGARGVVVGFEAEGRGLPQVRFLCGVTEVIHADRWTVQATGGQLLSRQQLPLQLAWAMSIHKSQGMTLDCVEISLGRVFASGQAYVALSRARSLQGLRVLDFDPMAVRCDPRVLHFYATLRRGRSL
Description: EMSA; 5 mM AMP-PNP, 5.5 mM MgCl2; no inhibitor; 20 mM HEPES-NaOH pH 7.5, 20 mM NaCl, 5.5 mM MgCl2, 5 mM AMP-PNP, 1 mM DTT, 0.1 mg/ml BSA; 0.25 nM DNA; binding temperature not stated explicitly (helicase assay conditions 37 C); 5% PAGE, 0.25x TBE. The settings on record: protein: recombinant; tags: N-terminal His6 removed; GSRM cloning residues remain; label: 5'-32P; single strand. On the technique in general: A gel shift assay detects complexes by their altered migration in electrophoresis.

For data set [2], the target named is T2, hPIF1HD V258L (Homo sapiens, UniProt Q9H611 206-620, V258L).
T2 sequence: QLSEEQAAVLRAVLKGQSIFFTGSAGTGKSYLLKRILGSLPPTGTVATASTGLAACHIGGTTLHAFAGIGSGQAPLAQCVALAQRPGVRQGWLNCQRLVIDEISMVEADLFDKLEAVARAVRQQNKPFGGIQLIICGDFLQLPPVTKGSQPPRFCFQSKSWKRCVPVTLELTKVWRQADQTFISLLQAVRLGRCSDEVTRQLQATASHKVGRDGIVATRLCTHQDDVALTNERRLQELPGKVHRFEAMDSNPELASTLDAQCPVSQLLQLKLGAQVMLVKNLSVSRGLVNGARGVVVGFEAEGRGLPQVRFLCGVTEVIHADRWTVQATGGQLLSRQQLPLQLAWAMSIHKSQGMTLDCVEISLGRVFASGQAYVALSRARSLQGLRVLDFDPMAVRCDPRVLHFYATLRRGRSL
The data set is described as above. Particulars: protein: recombinant; tags: N-terminal His6 removed; GSRM cloning residues remain; label: 5'-32P; single strand.

Drawing on publication PMC11551755, “Structure-based discovery of first inhibitors targeting the helicase activity of human PIF1” (Nucleic Acids Research, 2024), this text covers binding signal for one molecule.

B1: oligo d(T)55 (ssDNA)
DNA: TTTTTTTTTTTTTTTTTTTTTTTTTTTTTTTTTTTTTTTTTTTTTTTTTTTTTTT
Regarding B1, the binding signal is approximately 2 fold reduced vs wild type in data set [1] and ~1 fold vs wild type (near equivalent) in data set [2].
